Changes are numbered by the printed parent chain.
Key:
Experiment in all cases: high-throughput RNA pulldown from lysate on Ni-NTA beads; HRP: 50 mM Tris pH 8, 150 mM NaCl, 1 mM beta-mercaptoethanol, 50 ug/ml BSA, 3 ug/ml yeast RNA, 0.5% heparin; ITC and FP: Tris pH 8, 200 mM KCl, 5% glycerol; MST: 50 mM Tris pH 8, 200 mM NaCl, 1 mM DTT, BSA, heparin, 0.05% Tween 20
Details in all cases: tags: N-terminal His-eGFP
[1] = molecular target: T1, GFP-9S library array, motif 4 ND N98I;D124N (synthetic construct, N98I;D124N)
T1 chain: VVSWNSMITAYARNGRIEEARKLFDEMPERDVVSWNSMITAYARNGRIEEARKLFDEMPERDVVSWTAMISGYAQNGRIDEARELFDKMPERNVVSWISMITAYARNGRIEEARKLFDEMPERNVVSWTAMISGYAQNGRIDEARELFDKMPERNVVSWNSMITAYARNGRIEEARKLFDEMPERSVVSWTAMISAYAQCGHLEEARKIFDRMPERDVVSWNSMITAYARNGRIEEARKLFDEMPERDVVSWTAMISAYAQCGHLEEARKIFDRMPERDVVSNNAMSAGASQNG

[2] = molecular target: T2, GFP-9S library array, motif 4 ND N98G;D124F (synthetic construct, N98G;D124F)
T2 chain: T1 chain with I98G, N124F

[3] = molecular target: T3, GFP-9S library array, motif 4 ND N98I;D124C (synthetic construct, N98I;D124C)
T3 chain: T1 chain with N124C

[4] = molecular target: T4, GFP-9S library array, motif 4 ND N98K;D124R (synthetic construct, N98K;D124R)
T4 chain: T1 chain with I98K, N124R

[5] = molecular target: T5, GFP-9S library array, motif 4 ND N98M;D124S (synthetic construct, N98M;D124S)
T5 chain: T1 chain with I98M, N124S

| Binder | Kd ([1]; label: 5' IRDye 800CW) | Kd ([2]; label: 5' IRDye 800CW) | Kd ([3]; label: 5' IRDye 800CW) | Kd ([4]; label: 5' IRDye 800CW) | Kd ([5]; label: 5' IRDye 800CW) | Kd ([1]; label: 5' Cy5) | Kd ([2]; label: 5' Cy5) | Kd ([3]; label: 5' Cy5) | Kd ([4]; label: 5' Cy5) | Kd ([5]; label: 5' Cy5) |
| --- | --- | --- | --- | --- | --- | --- | --- | --- | --- | --- |
| AUUAUACGUGA (ssRNA) [IR-rpoA-U] | 18.2 nM | 119 nM | 32.9 nM | 66.9 nM | 48.4 nM |  |  |  |  |  |
| AUUAAACGUGA (ssRNA) [IR-rpoA-A] | 150 nM | 218 nM | 42.5 nM | 139 nM | 65.9 nM |  |  |  |  |  |
| AUUAGACGUGA (ssRNA) [Cy5-rpoA-G] |  |  |  |  |  | 117 nM | 95.6 nM | 90.6 nM | 55.5 nM | 73.1 nM |
| AUUACACGUGA (ssRNA) [Cy5-rpoA] |  |  |  |  |  | 96.4 nM | 69.1 nM | 182 nM | 42.9 nM | 50.4 nM |
